Measured values taken from patent publication US20050079151A1, “Therapeutic agents for apoptosis-related diseases” (priority 1998, published 2005).

Tests used:
[1] = test system: NG 108 cell lines; assay: Determination of DNA content in apoptosis-induced neurocytes (UV, PI staining, flow cytometry); type: cell-based, mouse; settings: after UV exposure; for Ratio of cells at each cell cycle: G1: control group 7; for Ratio of cells at each cell cycle: G2/M: control group 9; for Ratio of cells at each cell cycle: S: control group 84
Description: The culture flasks were coated with MK 100 ng/ml or MK 10 μg/ml. The flasks without a MK-coating (control) were also prepared.
NG 108 cell lines, hybrid cells of mouse neuroblastoma C1300 and glioma (Nelson P. G. et al.: Brain Res., 147: 245, 1978), were cultured in a Falcon 3110 cell culture flask (75 cm^2, BECTON DICKINSON) containing 10% FBS/DMEM until the cells were almost confluent. After culturing, the cells were exposed to ultraviolet light for […] (UV radiation amount: 60-100 J/m^2) to induce apoptosis.
The cells were collected by centrifugation (4° C., 1000 rpm, 10 min), and washed with 10 to 12 ml of sample buffer [1 g glucose/1 L PBS (−); filtered through a 0.22 μm filter] twice. The cells were adjusted to 1×10^6 to 3×10^6 cells/ml with the sample buffer, and 1 ml of them was centrifuged (4° C., 1000 rpm, 10 min) in a centrifuge tube (FALCON; 15×75 mm). The supernatant was discarded and the pellet was vigorously vortexed for 10 sec. Ethanol (70%) cooled with ice (1 ml) was added dropwise thereto and fixed at 4° C. overnight.
The cells fixed overnight were briefly vortexed and centrifuged (3000 rpm, 5 min). 70% Ethanol in the supernatant was discarded to 0.2 ml or less. The centrifuge tubes containing the cells were slowly vortexed, and 1 ml of propidium iodide (PI) stain was added thereto. The PI stain contained 0.5 ml of 20×PI solution, 0.1 ml of 100×RNase A solution, and 10 ml of the sample buffer. Twenty-fold dilution of PI was obtained by preparing 1 mg/ml of PI solution (SIGMA), filtering it through a 0.22 μm filter, and storing it at 4° C. in the dark. RNase A solution (100×) was prepared by adjusting RIBONUCLEASE A (Type I-A) (SIGMA) (10000 U/ml) to 125 mg/ml (80 U/mg).
The cells were lightly shaken, incubated for 30 min or longer at room temperature, and measured by flow cytometry.

[2] = test system: hippocampal region CA1 neurocytes; assay: Apoptosis-inhibitory effect in vivo, transient forebrain ischemia, administration before ischemic damage; design: species or system Mongolian gerbil; settings: for numbers of surviving nuclei contained in the CA1 region per unit length of CA1: mean±standard deviation, saline 18±25, Sham-op 265±38; for number of nuclei showing apoptosis positive reaction (TUNEL) against the total number of cells: saline 69.7±17.0, Sham-op 0.0±0.0; for numbers of neurocytes in CA1: 2 μg MK, saline 10±10, sham-op 263±31
Text: (1) Six to 16 male Mongolian gerbils (6- to 8-week old, body weight: 60 to 80 g) for each group were housed in “HONEY MATIC M-3” (KIMURA MEDICAL INSTRUMENT LTD.), an anesthetic delivery device for Fluothane, and the container was filled with an appropriate amount of inhalation anesthetic “Fluothane” (halothane according to Japanese Phamacopeia). The anesthetized animals were fixed on an operating table equipped with an injection holder (NARISHINGE SCEITIFIC INSTRUMENT LAB.; TYPE SR-5N, No. 97024). After the head was subjected to midline incision, a hole for inserting a syringe of an appropriate size was made by a dental drill at a site 2 mm away from the bregma towards the left eyeball direction. Through this hole, 2 μl of 0.25 mg/ml, 0.5 mg/ml or 1 mg/ml MK solutions (0.5 μg, 1.0 μg, 2.0 μg ) (in physiological saline) were seperately injected into the ventricle with a microsyringe (HAMILTON MICROLITER #701). As control groups, a saline injected group and the sham operated (Sham-op) group were prepared. After injection into the ventricle, the mice were left for 4 min and the operated site was sutured. The chest was subjected to midline incision to expose both right and left common carotid arteries. The both arteries were ligated with two pieces of Sugita brain aneurysm clip (standard type; MIZUHO) to stop blood flow for 5 min, and the blood was circulated again. During ischemic loading, brain temperature and body temperature were maintained constant (37±0.2° C.). Each mouse was distinguished and housed in a nursery cage after coming out of anesthesia to breed, allowing the animals to freely intake water and food. After one week, the mice were fixed while perfusing with saline containing 0.2% heparin (Novo Heparin Injection 100; Japan Hoechet Marion Russell LTD) and 4% paraformaldehyde solution, and beheaded. The brain was excised using scissors, and immersed in 4% paraformaldehyde fixative for one day. The rear portion from 2 mm ahead of the bregma was divided into three using a double-edged razor (Feather). These sections were further fixed for 24 hours. Tissues containing dorsal hippocampus were dehydrated and penetrated, and embedded with paraffin.
A 5 μm section, from 0.5 to 1.0 mm from the tip of the hippocampus or from 1.4 to 1.9 mm behind the sagittal suture was prepared from this paraffin block and observed by the TUNEL method (In situ Apoptosis Detection Kit, TaKaRa). The results are shown in FIG. 8 (×25) and FIG. 9 (×100).
(2) By following the method described in (1), MK solution (0.063 μg, 0.125 μg, 0.25 μg, 0.5 μg, 1 fig, or 2 μg), was injected into the ventricle just before development of ischemic injury to examine protective effects of MK on delayed neuronal death. Seven days after the injury, the CA1 region were stained with hematoxylin-eosine. Micrographs in low magnification (×25) are shown in FIG. 10 (FIG. 10a: saline, FIG. 10b: Sham-op, FIG. 10c: MK 2 μg, FIG. 10d: MK 1 μg, FIG. 10e: MK 0.5 μg, FIG. 10f: MK 0.25 μg), and those in high magnification (×100) in FIG. 11 (FIG. 11a: saline, FIG. 11b: Sham-op, FIG. 11c: MK 2 μg, FIG. 11d: MK 1 vg, FIG. 11e: MK 0.5 vg, FIG. 11f: MK 0.25 μg).
For quantitative evaluation, the numbers of surviving nuclei contained in the CA1 region per unit length of CA1 were obtained (FIG. 12). The values were 18±25/mm(n=15, mean±standard deviation) for the saline administration group and 265±38 /mm (n=23) for the Sham-op group. For the 0.5, 1, or 2 μg MK administration groups, the values were 217±109 (n=7), 228±84 (n=8), and 243±82 (n=10), respectively. The values decreased when MK concentration was low (FIG. 12). There was a significant difference between the saline administrated group and MK administrated (0.5 to 2 μg MK) groups (ANOVA and post-hoc Fisher's PLSD teat, p<0.0001).
Whether the effect of MK administration (2 μg) continues was examined. […]

B1: MK: midkine, a heparin-binding growth and differentiation factor; human MK protein (SEQ ID NO: 3; or recombinant, secreted by yeast) (protein, UniProt P21741 21-143, looked up)
Midkine: VAKKKDKVKKGGPGSECAEWAWGPCTPSSKDCGVGFREGTCGAQTQRIRCRVPCNWKKEFGADCKYKFENWGACDGGTGTKVRQGTLKKARYNAQCQETIRVTKPCTPKTKAKAKAKKGKGKD
B1 was tested, and the “Ratio of cells at each cell cycle: G1” value ([1]; flask coated with MK 100 ng/ml) was 75%, the “Ratio of cells at each cell cycle: G2/M” value ([1]; flask coated with MK 100 ng/ml) was 5% and the “Ratio of cells at each cell cycle: S” value ([1]; flask coated with MK 100 ng/ml) was 19%. The “Ratio of cells at each cell cycle: G1” value ([1]; flask coated with MK 10 μg/ml) was 67%, the “Ratio of cells at each cell cycle: G2/M” value ([1]; flask coated with MK 10 μg/ml) was 24% and the “Ratio of cells at each cell cycle: S” value ([1]; flask coated with MK 10 μg/ml) was 9%. For the same molecule, the “change of the ratio of the cells at G1 phase compared with the control group” value ([1]; in the presence of MK) was “increased by about tenfold”, the “change of the ratio of the cells at S phase compared with the control group” value ([1]; in the presence of MK) was “decreased one eighth to one forth” and the “nuclei in CA1 region, hematoxylin-eosine, high magnification” value ([2]; 0.25 μg MK into the ventricle just before ischemic injury, seven days after) was “Deteriorated nuclei were observed”. For the same molecule, the “numbers of surviving nuclei contained in the CA1 region per unit length of CA1” value (“numbers … per unit length of CA1” below) ([2]; 0.5 μg MK just before ischemia, seven days after) was 217±109 /mm, the “number of nuclei showing apoptosis positive reaction (TUNEL) against the total number of cells” value (“number … of cells” below) ([2]; 0.5 μg MK just before ligation, seven days after) was 7.8±19.8 and the “numbers … per unit length of CA1” value ([2]; 1 μg MK just before ischemia, seven days after) was 228±84 /mm. For the same molecule, the “number … of cells” value ([2]; 1 μg MK just before ligation, seven days after) was 11.0±14.7, the “numbers … per unit length of CA1” value ([2]; 2 μg MK just before ischemia, seven days after) was 243±82 /mm and the “number … of cells” value ([2]; 2 μg MK just before ligation, seven days after) was 4.6±12.2. The “numbers of neurocytes in CA1” value ([2]; four weeks after ischemia) was 157±60 cells/mm, the “numbers of neurocytes in CA1” value ([2]; one week after ischemia) was 219±74 cells/mm and the “numbers of neurocytes in CA1” value ([2]; three weeks after ischemia) was 185±83 cells/mm. The “numbers of neurocytes in CA1” value ([2]; two weeks after ischemia) was 152±72 cells/mm, the “nuclei in CA1 region, hematoxylin-eosine, high magnification” value ([2]; 0.5 to 2 μg MK into the ventricle just before ischemic injury, seven days after) was “survived circle nuclei were observed” and the “TUNEL stained nuclei in hippocampal region CA1” value ([2]; 0.5 to 2 μg MK just before ligation, seven days after) was “Few stained nuclei were observed”. For the same molecule, the “activity against delayed neuronal death” value ([2]; 28 days after the injury) was “showed a significant activity” and the “cells containing TUNEL reaction positive nuclei and atrophied neurocytes in hippocampal region CA1” value ([2]; MK injected into the ventricle before 5 min ischemia, one week after) was “such neurocytes were not observed”.
